B1: …1 (SEP1) (natural protein)
chain: MGRGRVELKRIENKINRQVTFAKRRNGLLKKAYELSVLCDAEVALIIFSNRGKLYEFCSSSNMLKTLDRYQKCSYGSIEVNNKPAKELENSYREYLKLKGRYENLQRQQRNLLGEDLGPLNSKELEQLERQLDGSLKQVRSIKTQYMLDQLSDLQNKEQMLLETNRALAMKLDDMIGVRSHHMGGGGGWEGGEQNVTYAHHQAQSQGLYQPLECNPTLQMGYDNPVCSEQITATTQAQAQQGNGYIPGWML
B2: …2 (SEP2) (natural protein)
chain: not shown
B3: …4 (SEP4) (natural protein)
chain: MGRGKVELKRIENKINRQVTFAKRRNGLLKKAYELSVLCDAEIALLIFSNRGKLYEFCSSPSGMARTVDKYRKHSYATMDPNQSAKDLQDKYQDYLKLKSRVEILQHSQRHLLGEELSEMDVNELEHLERQVDASLRQIRSTKARSMLDQLSDLKTKEEMLLETNRDLRRKLEDSDAALTQSFWGSSAAEQQQQHQQQQQGMSSYQSNPPIQEAGFFKPLQGNVALQMSSHYNHNPANATNSATTSQNVNGFFPGWMV

Molecular target: the molecule itself
Test: native gel or EMSA
B1 was tested, and the “stoichiometry N” value was 2. For B2, the “stoichiometry N” value was 2. For B3, the “stoichiometry N” value was 2.

Molecular target: the molecule itself
Test: native gel or EMSA
Remark: another data set of the same source
For B1, the “stoichiometry N” value was 4. B2 was tested, and the “stoichiometry N” value was 4. For B3, the “stoichiometry N” value was 4.

Reference: publication PMC4176161 (Nucleic Acids Research, 2014)
